The target of test [1] is T1, PD-1-His (purified recombinant 6xHis-tagged PD-1_ECD) (UniProt Q15116 25-170).
T1 construct: extracellular domain
Kind of test: SPR, affinity improvement against anti-PD-1 ref.

Test [2] deals with T1, PD-1-His (purified recombinant …). Description: SPR, antibody captured on anti-human IgG Fc, PD-1-His analyte, 25 C, 1:1 Langmuir.
Test [3] has the same target. Description: SPR, affinity improvement against the referenced anti-PD-1 antibody.
Test [4] addresses T2, PD-1 on activated human T cells.
T2 construct: the sheet names no target
Description: flow cytometry on PHA-activated human T cells, FITC-labeled anti-human IgG Fcγ, MFI.

For test [5], the target named is T1, PD-1-His (purified recombinant …). Kind of test: SPR, full-length IgG, PD-1-His analyte (method of Example 3).
In test [6] the target is T3, Cynomolgus PD-1 (cynomolgus monkey).
T3 construct: PD-1 part of a purchased recombinant PD-1/Fc fusion protein; immobilized at 9 ng per well; also called recombinant cynomolgus monkey PD-1 fusion protein; PD-1/Fc (Sino Biological Inc.)
Description: ELISA on immobilized cynomolgus monkey PD-1/Fc (9 ng per well), peroxidase-labeled anti-human IgG F(ab)'2, OD450nm.

Test [7] has as its target T4, Human PD-1 (human).
T4 construct: PD-1 part of a purchased recombinant PD-1/Fc fusion protein; immobilized at 9 ng per well; also called recombinant human PD-1 fusion protein; PD-1/Fc (Sino Biological Inc.)
Kind of test: ELISA on immobilized human PD-1/Fc (9 ng per well), peroxidase-labeled anti-human IgG F(ab)'2, OD450nm.

Test [8] addresses T1, PD-1-His (purified recombinant …). Kind of test: competition ELISA: antibody dilutions pre-mixed with PD-1-His (0.1 µg/ml), then added to a plate coated with the referenced anti-PD-1 (4 µg/ml); anti-His-HRP, OD450.
Test [9] has the same target. Kind of test: blocking ELISA: antibody dilutions mixed with PD-L1-AP, added to PD-1-His coated wells, OD405.
The target is the same in test [10]. Kind of test: ELISA on PD-1-His, anti-human IgG Fc-HRP, OD450.
Test [11] has as its target T5, recombinant human PD-1 at the cell surface (PD-1 transfected CHO-S cells) (human, UniProt Q15116 25-288).
T5 construct: whole, on cells; Also used as the target in the mixed leukocyte reaction rows, where it is human PD-1 on T cells; also called PD-1 expressing CHO-S cells; PD-1 expressed CHO-S cells
Kind of test: blocking flow cytometry: PD-1 expressing CHO-S cells incubated with antibody, washed, then biotin-labeled PD-L1-Fc and streptavidin-PE, MFI.

Test [12] deals with T1, PD-1-His (purified recombinant …). Description: competition ELISA: PD-1-His (0.1 µg/ml) first bound to a plate coated with the referenced anti-PD-1 (4 µg/ml), antibody dilutions added afterwards; anti-His-HRP, OD450.

T1 sequence (Q15116 other isoform, or with tags, fused parts or gaps limits assumed): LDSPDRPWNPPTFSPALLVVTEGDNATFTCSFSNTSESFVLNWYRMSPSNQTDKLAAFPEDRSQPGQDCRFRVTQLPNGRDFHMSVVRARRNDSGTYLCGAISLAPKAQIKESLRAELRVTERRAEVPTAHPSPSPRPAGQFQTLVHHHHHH
T4 sequence (Q15116 25-170): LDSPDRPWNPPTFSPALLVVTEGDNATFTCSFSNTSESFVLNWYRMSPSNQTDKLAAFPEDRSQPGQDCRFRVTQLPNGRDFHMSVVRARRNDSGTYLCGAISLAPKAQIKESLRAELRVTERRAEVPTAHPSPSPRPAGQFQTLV
T2 sequence (chain, as listed by the source limits assumed): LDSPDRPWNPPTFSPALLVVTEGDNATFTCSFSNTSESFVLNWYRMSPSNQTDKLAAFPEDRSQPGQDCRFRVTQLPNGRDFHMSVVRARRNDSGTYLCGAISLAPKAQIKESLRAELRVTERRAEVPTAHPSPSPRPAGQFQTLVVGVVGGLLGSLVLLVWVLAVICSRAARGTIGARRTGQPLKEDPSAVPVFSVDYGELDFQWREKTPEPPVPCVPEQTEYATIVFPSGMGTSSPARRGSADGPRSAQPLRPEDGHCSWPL
T5 sequence (Q15116 25-288): as the sequence (chain, as listed by the source limits assumed) above

B1: humanized anti-PD-1 antibody 1G4 (h1G4) (antibody, human IgG4 S228P, kappa, V domains shown)
VH: QVQLVESGGGLVKPGGSLRLSCAASGFTFSNYGMSWIRQAPGKGLEWVSTISGGGSNIYYADSVKGRFTISRDNAKNSLYLQMNSLRAEDTAVYYCVSYYYGIDFWGQGTSVTVSS
VL: DIQMTQSPSSLSASVGDRVTITCKASQDVTTAVAWYQQKPGKAPKLLIYWASTRHTGVPSRFSGSGSGTDFTLTISSLQPEDFATYYCQQHYTIPWTFGGGTKLEIKR
notes: CDRs of c1G4 grafted onto IGKV1-39*01 and IGHV3-11*04; also called HLX10; humanized h1G4
Regarding B1, the Improvement in [1] worked out at 6.66 fold; in [3], 6.37 fold. The dissociation constant Kd came to 0.265 nM in test [2] and 0.479 nM in test [5]. Moreover, the off-rate (koff) came out at 7.98e-05 s⁻¹ in test [2] and 0.000216 s⁻¹ in [5]. Moreover, the values for the kon in test [2] and in test [5] were 310000 M⁻¹ s⁻¹ and 457000 M⁻¹ s⁻¹, respectively. The 50% effective concentration (EC50 (read off the curve)) is around 0.1 µg/mL in test [4], around 0.04 µg/mL in test [6] and around 0.03 µg/mL in test [7].

B2: referenced anti-PD-1 antibody (antibody, human IgG4 S228P, kappa, V domains shown)
VH: QVQLVESGGGVVQPGRSLRLDCKASGITFSNSGMHWVRQAPGKGLEWVAVIWYDGSKRYYADSVKGRFTISRDNSKNTLFLQMNSLRAEDTAVYYCATNDDYWGQGTLVTVSS
VL: EIVLTQSPATLSLSPGERATLSCRASQSVSSYLAWYQQKPGQAPRLLIYDASNRATGIPARFSGSGSGTDFTLTISSLEPEDFAVYYCQQSSNWPRTFGQGTKVEIKR
On to B2, for which the “EC50 (read off the curve)” value in [6] is around 0.03 µg/mL; in [7], around 0.02 µg/mL.

B3: chimeric anti-PD-1 antibody c1G4 (antibody, human IgG4 S228P, kappa, V domains shown)
VH: EVMLVESGGGLVKPGGSLKLSCAASGFTFSNYGMSWVRQTPEKSLEWVATISGGGSNIYYPDSVKGRFTISRDNAKNNLFLQMSGLRSEDTALYYCVSYYYGIDFWGQGTSVTVSS
VL: DIVMTQSHKFMSTSVGDRVSITCKASQDVTTAVAWYQQKPGQSPKLLIYWASTRHTGVPDRFTGSGSGTDYTLTINSVQAEDLALYYCQQHYTIPWTFGGGTKLEIKR
notes: also called chimeric c1G4
With B3, the Improvement in [1] stood at 4.07 fold; in test [3], 9.38 fold. Besides, the figures for the dissociation constant Kd in test [2] and in [5] were 0.434 nM and 0.325 nM, respectively. Further, the koff in test [2] stood at 0.000104 s⁻¹; in test [5], 0.000177 s⁻¹. In addition, the on-rate (kon) was found to be 244000 M⁻¹ s⁻¹ in [2] and 550000 M⁻¹ s⁻¹ in test [5]. For the same molecule, the “IC50 (read off the curve)” value in test [8] was around 0.5 µg/mL; in test [9] it was around 0.4 µg/mL; in test [11], around 0.6 µg/mL; in test [12] it was around 0.8 µg/mL. The concentration giving a half-maximal response (EC50 (read off the curve)) in [10] was around 0.04 µg/mL.
